We go through two molecules from patent publication US20090305241, “DNA demethylases and uses thereof” (REGENTS OF THE UNIVERSITY OF CALIFORNIA, published 2009).

The target in data set [1] is T1, DME (MBP-Δ537DME, wild-type glycosylase domain) (UniProt Q8LK56 SEQ:538-1729).
T1 chain: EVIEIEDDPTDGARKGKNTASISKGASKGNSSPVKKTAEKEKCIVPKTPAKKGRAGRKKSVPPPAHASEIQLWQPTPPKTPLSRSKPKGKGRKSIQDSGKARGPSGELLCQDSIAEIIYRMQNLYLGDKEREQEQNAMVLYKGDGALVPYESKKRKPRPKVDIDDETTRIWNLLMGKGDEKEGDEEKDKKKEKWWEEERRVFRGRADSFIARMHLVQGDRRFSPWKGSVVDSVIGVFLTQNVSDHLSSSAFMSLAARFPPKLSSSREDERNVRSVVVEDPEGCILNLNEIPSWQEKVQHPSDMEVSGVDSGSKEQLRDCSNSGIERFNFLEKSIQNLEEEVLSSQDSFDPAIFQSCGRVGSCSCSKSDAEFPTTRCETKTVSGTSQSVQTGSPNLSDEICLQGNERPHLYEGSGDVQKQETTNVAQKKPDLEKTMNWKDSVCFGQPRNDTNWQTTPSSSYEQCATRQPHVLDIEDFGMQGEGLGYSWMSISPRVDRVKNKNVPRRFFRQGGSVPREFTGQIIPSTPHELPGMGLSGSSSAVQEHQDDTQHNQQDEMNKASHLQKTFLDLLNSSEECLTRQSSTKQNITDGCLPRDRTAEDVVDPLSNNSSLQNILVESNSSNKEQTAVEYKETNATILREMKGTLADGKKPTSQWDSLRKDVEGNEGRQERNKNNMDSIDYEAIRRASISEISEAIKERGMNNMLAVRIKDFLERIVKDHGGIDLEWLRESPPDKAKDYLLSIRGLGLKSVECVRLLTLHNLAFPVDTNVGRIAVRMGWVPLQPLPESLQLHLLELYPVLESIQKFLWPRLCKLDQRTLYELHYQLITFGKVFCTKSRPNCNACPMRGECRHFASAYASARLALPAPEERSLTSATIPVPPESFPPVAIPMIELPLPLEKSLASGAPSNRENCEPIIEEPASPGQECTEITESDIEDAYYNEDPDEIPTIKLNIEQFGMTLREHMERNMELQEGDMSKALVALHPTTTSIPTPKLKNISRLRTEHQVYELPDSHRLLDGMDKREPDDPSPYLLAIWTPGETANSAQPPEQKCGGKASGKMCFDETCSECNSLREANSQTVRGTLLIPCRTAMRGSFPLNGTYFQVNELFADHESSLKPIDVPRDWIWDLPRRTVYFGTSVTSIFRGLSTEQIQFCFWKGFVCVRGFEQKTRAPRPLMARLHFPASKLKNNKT
Description: NaBH4-trapped covalent complex (~200 kd); 40 mM HEPES-KOH pH 8.0, 0.1 M KCl, 37 C. To be noted: tags: N-terminal MBP (pMAL-c2x), expressed in E. coli Rosetta; label: 5'-32P top strand. The source says:
DME breaks the phosophodiester linkage on the 3′-side of a 5-methylcytosine residue (hemimethylated substrate) and generates end-labeled DNAs that migrate on denaturing polyacrylamide gels at the predicted position for β-elimination products (FIG. 3C). The subsequent cleavage of the phosphodiester linkage on the 5′-side yields δ-elimination products through the same mechanism found in related DNA glycosylases (Bhagwat, M. and Gerlt, J. A., Biochemistry, 35, 659-665 (1996)). Treatment of products with strong base (NaOH) prior to gel electrophoresis confirmed the δ-elimination process at the predicted position (FIG. 3C). […] No lyase activity (FIG. 3E) or covalent trapping (FIG. 3D) was detected when DME was incubated with non-methylated oligonucleotides, or when hemimethylated substrate was incubated with no enzyme or mutant enzymes (D1304N or K1286Q). Plants have 5-methylcytosine in the three sequence contexts; CpG, CpNpG, and CpNpN (Bender, J., Ann Rev Plant Biology, 55, 41-68 (2004)). DME has activity on 5-methylcytosine in each of these sequence contexts (FIG. 3E). We detected no DME activity when single-stranded oligonucleotides with 5-methylcytosine were used in the reaction (data not shown). […]

In the next data set the target is T2, DME D1304N (MBP-Δ537DME) (UniProt Q8LK56 SEQ:538-1729, D1304N).
T2 sequence: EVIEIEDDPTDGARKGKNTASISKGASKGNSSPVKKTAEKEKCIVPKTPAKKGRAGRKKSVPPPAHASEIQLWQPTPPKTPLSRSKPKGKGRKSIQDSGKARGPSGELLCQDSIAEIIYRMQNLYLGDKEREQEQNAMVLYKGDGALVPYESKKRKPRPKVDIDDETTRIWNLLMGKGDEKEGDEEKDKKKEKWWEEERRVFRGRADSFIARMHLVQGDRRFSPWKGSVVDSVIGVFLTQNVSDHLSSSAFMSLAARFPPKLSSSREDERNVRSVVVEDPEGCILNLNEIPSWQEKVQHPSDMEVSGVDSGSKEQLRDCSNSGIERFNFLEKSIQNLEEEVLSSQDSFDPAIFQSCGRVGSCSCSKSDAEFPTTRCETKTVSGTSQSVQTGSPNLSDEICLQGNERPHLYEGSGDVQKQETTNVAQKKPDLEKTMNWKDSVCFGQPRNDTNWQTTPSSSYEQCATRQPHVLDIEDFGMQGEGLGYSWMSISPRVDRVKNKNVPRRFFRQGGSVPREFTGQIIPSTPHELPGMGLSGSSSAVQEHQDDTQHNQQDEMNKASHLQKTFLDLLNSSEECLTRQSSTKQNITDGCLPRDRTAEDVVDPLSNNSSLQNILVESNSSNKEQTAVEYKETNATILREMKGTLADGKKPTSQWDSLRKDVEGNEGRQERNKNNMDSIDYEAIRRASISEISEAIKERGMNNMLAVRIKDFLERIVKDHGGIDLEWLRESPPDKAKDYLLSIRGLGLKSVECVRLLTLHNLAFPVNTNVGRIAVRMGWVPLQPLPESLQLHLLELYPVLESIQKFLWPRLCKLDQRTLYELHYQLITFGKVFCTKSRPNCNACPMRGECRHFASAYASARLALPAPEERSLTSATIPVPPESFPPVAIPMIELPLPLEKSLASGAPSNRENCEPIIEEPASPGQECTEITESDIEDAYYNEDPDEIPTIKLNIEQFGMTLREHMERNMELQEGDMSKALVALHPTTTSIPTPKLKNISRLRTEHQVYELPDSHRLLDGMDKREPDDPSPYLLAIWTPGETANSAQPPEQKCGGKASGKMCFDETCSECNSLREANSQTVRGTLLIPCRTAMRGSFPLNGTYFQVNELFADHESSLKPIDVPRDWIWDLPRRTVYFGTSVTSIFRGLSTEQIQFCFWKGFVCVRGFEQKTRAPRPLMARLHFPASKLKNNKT
Description: no trapping or lyase activity detected (catalytic mutant). The following applies: tags: N-terminal MBP (pMAL-c2x); label: 5'-32P top strand. As to the method: (§1) 5′-labeled oligonucleotide substrates (13.3 nM) were incubated with DME protein (250 nM) in a 15 μl reaction with 40 mM HEPES-KOH (pH 8.0), 0.1 M KCl, 0.1 mM EDTA, 0.5 mM dithiothreitol, and 200 μg/mL BSA at 37° for 1 hr. The reaction was terminated with 15 μl of 95% formamide, 20 mM EDTA, 0.05% bromophenol blue, 0.05% xylene cyanol FF and boiled for 5 min. To induce […], NaOH was added at a final concentration of 0.1 M and the reaction was boiled for 7 min. Products were fractionated on a 15% polyacrylamide gel containing 7.5 M urea and 1×TBE. Electrophoresis was done at 1000V for 4 hrs with a Hoefer SQ3 gel apparatus. The gel was exposed to Kodak BioMax MR film at −80°. Methods for purification of recombinant DME, oligonucleotide substrates, NaBH₄ trapping, and toxicity in E. coli are in the Supplemental Experimental Procedures.
(§2) 5′-labeled oligonucleotide substrates (13.3 nM) were incubated with DME protein (250 nM) in a 15 μl reaction with 40 mM HEPES-KOH (pH 8.0), 0.1 M KCl, 0.1 mM EDTA, 0.5 mM dithiothreitol, and 200 μg/mL BSA at 37°. After 1 hr of incubation, 1 M NaBH₄ was added to a final concentration of 100 mM and the reaction tubes were placed at 37° for an additional 10 min. An equal volume of 2×SDS-PAGE loading buffer (90 mM Tris-HCl, pH 6.8, 20% glycerol, 2% SDS, 0.02% bromophenol blue, 100 mM dithiothreitol) was added to terminate the trapping reaction. […]

The target in another data set is T3, DME K1286Q (MBP-Δ537DME) (UniProt Q8LK56 SEQ:538-1729, K1286Q).
T3 sequence: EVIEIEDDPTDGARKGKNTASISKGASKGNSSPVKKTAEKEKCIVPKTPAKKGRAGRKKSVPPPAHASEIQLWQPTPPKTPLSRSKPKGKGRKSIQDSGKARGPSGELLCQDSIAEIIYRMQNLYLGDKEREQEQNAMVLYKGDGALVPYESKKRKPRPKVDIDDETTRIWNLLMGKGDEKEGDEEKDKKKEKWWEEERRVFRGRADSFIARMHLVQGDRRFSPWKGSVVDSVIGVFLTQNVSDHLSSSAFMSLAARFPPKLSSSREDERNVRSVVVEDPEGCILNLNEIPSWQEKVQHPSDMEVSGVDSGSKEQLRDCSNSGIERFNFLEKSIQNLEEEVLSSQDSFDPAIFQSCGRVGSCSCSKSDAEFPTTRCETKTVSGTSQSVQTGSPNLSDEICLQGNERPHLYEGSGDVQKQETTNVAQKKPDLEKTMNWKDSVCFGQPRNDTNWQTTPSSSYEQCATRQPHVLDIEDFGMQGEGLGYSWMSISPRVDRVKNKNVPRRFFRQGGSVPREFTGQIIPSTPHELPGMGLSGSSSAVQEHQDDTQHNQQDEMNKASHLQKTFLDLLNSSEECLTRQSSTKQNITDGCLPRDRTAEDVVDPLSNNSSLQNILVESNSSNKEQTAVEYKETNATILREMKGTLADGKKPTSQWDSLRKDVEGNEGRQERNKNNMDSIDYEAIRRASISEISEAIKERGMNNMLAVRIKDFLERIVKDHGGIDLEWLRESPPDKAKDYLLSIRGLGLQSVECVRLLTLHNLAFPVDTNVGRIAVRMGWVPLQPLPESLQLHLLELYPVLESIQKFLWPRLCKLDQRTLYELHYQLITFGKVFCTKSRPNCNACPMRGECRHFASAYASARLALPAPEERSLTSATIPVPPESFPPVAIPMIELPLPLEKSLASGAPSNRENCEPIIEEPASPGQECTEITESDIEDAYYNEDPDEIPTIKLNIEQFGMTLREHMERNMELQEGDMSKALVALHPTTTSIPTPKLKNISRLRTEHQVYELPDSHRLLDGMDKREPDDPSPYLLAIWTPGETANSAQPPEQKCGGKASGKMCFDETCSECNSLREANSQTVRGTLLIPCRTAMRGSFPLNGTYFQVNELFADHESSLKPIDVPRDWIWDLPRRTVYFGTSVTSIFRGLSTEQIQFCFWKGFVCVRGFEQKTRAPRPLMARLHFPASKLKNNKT
The description is as above. To be noted: tags: N-terminal MBP; label: 5'-32P top strand. On the procedure: as §1, §2

Data set [2] has as its target T1, DME (MBP-Δ537DME, wild-type glycosylase …). As to the kind of experiment: NaBH4-trapped covalent complex. To be noted: tags: N-terminal MBP (pMAL-c2x), expressed in E. coli Rosetta; label: 5'-32P top strand; T/G mismatch. As to the method:
5′-labeled oligonucleotide substrates (13.3 nM) were incubated with DME protein (250 nM) in a 15 μl reaction with 40 mM HEPES-KOH (pH 8.0), 0.1 M KCl, 0.1 mM EDTA, 0.5 mM dithiothreitol, and 200 μg/mL BSA at 37°. After 1 hr of incubation, 1 M NaBH₄ was added to a final concentration of 100 mM and the reaction tubes were placed at 37° for an additional 10 min. An equal volume of 2×SDS-PAGE loading buffer (90 mM Tris-HCl, pH 6.8, 20% glycerol, 2% SDS, 0.02% bromophenol blue, 100 mM dithiothreitol) was added to terminate the trapping reaction. Products were boiled for 10 min before loading onto a 10% SDS-PAGE gel. The wet gel was exposed to Kodak Biomax MS film for 12-18 h at −80°.

B1: hemimethylated meCpG (MEA-1.6F18meC / MEA-1.6R) (dsDNA)
DNA 1: CTATACCTCCTCAACTCCGGTCACCGTCTCCGGCG
DNA 2: CGCCGGAGACGGTGACCGGAGTTGAGGAGGTATAG
modifications: 5mC at position 18 of top strand [top 18 (5mC)]
Consider B1, for which the binding result in data set [1] is on record as “binds”; with DME D1304N (MBP-Δ537DME), “no binding”; with DME K1286Q (MBP-Δ537DME) it was “no binding”.

B2: T/G mismatch (MEA-1.6F18T / MEA-1.6R) (dsDNA)
DNA 1: CTATACCTCCTCAACTCTGGTCACCGTCTCCGGCG
DNA 2: CGCCGGAGACGGTGACCGGAGTTGAGGAGGTATAG
Turning to B2, the binding result in data set [2] is listed as “binds”.
